Experimental data: the DeepSol protein solubility set

experiment: soluble on expression in E. coli; label from the status in PepcDB or PDB records

Sequence	soluble on expression in E. coli
MGMDQSRLMSGAAGGALVLMGLKKRGVLGLLMTVGGGYLAYKAATGKDPVMEAAGLTGSAGAAKPIFVEHSIVIDRPAQQVYDYWRKLENLPQIMSHLESVTVLDDKRSRWVAKAPLGTHVEWEAEVVNDKPGERIGWHSLPGATVDNAGSVQFESLPDDKTRVHVALSYRPPAGPLGAAVAKLFGEEPSQQIAEDLQKFKATFEGLEHHHHHH	soluble
MVMNRSSPHGGGVAAGDGGGRPLRPGHFPLRPLRGHLPPGGRIFALALAVALPVQAETLASRAPETVAITLYRDGDGPFQAMSPWVRQQARDKGLVLVTETRTVDLPAGRHTLRFDGVAEGLIPQSAAVEGLPGKAVERNYDYALLSPGTLVERSLGQPIKVVRTNRKTGRQQTVDATLIQGPYGLMVRTAEGVEALGCSGGAERLVLGAVPEGLTDKPSLSTIVEVPAPTRAKLTVSYLALGVNWQADYVARIHPDGQRLDLTGWLTLVNSGGSQFADAKTQAVAGKLSRKPVRVDKGEARSIHRACWPMDTTHYGQEPPPPPAPPPPLPIPMMSAAPMARAGAEEIAVTGARAKLAEQSNLGDYKLYTLPEPVTLNARQTKQVAFLDQKDVAFQRLYAVEMDSYDDYDNADWPLIIPDVVLRLENKTANGLGKPLPSGALSAIETAGGRPTFAGEQAVRDVAVGEPLDLVIGRAMDVHARPRLVEERTLSKGRVRRTYELDLANAKTVPITVEIRHDPTAPYFKLVSEPQKHDIRQGQVAWRVTLPAGERRSFRYAVAFGR	not soluble
MGSDKIHHHHHHMTTIPSTAEAKLEMLTTINRAIAGSRPEALPPYPVPAPLSRAEILHQFEDRILDYGAAYTHVSAAELPGAIAKALGNARRVIVPAGIPAPWLTVGMDVLRDEPPLSHAELDRADAVLTGCAVAISETGTIILDHRADQGRRALSLIPDFHICVVREDQIVQTVREGVEAVAASVREGRPLTWLSGGSATSDIELVRVEGVHGPRRLQVIVVG	soluble
MSLFINKEAELQWVREYARRSHATPFVIYGPEGCGKTALALEAVRRFSSWYAGGIALYIDGKARRAAEAVKSNVNIGDVLAEVGGLAGSVGRSAARLAVWLLGKIVEKIAERFAPMNILVVDELFSAVGVSEGALAVKYAKELGDRVLRSKKAELGEIPKPLAEASVSYLIFSSEGSSRRELSRHNWAHIALMWNMGERGFQQLGEILGAPDFSAAWRLCGGQPPLPFPISRAGLGRGKIPNSNREGHHHHHH	soluble
MSRTMAEVNRLLKKTAGLINKDTESPFQGEFRVGVDLGTADIQTIVLDADGNPLAGFMDWANVVRDGVVVDFFGASQIVREQVRRASAKLGIQIEQVTTSFPPGTDSRISTNVIEAAGLEVAGVIDEPSSVAQLLQLDHAAVVDIGGGTTGTAIIEEGRVVRSMDDATGGRHITLTLAGHFGLPYEEAEEMKRTSKDLALCRLAAPVIAKMADIVHGHIAGHKVPAIYLTGGSCALPGFLEVFAAEFPGIEIVMPSHPLYLTPLAIATYSDVLQTREQRVGLEHHHHHH	not soluble
MSLSSAPDIILHRGLFTTLDRSNPAASAVAIADGRFVAVGHDHDVMKLAGPSTKIVDLRGRRVLPGLIDNHLHIIRGGLNFNMELRWDGVRSLATAMDMLKRQVAVTPPPQWVRVVGGFTEHQFAEKRLPTIDELNAVAPDTPVFLLHLYDRAILNGAALRAVGYAKDTPEPPGGEIMRDTKGNPTGLLLAKPNANILYATLAKGPKLPFDYQVNSTRHFMRELNRLGVTGAIDAGGGFQNYPDDYAVIQKLSDEGLLTIRLAYNLFTQKPKGEKADFLNWTKTSKYKQGDDYFRHNGAGEMLVFSAADFEDFRVARPDMPAEMEGELEEVVRVLVQNKWPWRLHATYDETISRALDVFERVNQDIPLEGLHWFFDHAETISDQSIDRIAALGGGIAVQHRMAYQGEYFVERYGAGAAEATPPVKKIIDKGVKVSAGTDATRVASYNPWVSLSWLVTGRTVGGLRITPQRNCLDRETALRMWTENVTWFSNEEGNKGRIQVGQLADLVVPDRDYFSCSEAEIADTTSLLTMVGGRIVYGAGDFSKLESVTPPPAMPDWSPVRRFGGYAAWADDTAKTKDTSLAMKAMQMCGCANSCGVHGHDHAAAWSSRLPVSDLRSFWGALGCACWAVEGHHHHHH	not soluble
GSADETLCQTKVLLDIFTGVRLYLPPSTPDFSRLRRYFVAFDGDLVQEFDMTSATHVLGSRDKNPAAQQVSPEWIWACIRKRRLVAPC	soluble
MAIKNAFYAQSGGVTAVINASAAGLLETARAHSDKIGKVYAGRNGIIGALTEDLIDTSAESTEAIRALRHTPSGAFGSCRYKLKSLEDNRREYERLIEVFKAHDIGYFFYNGGGDSADTCLKVSQLAGTLGYPIQAIHVPKTVDNDLPITDCCPGFGSVAKYIAVSMLEASFDVASMAKTSTKVFILEVMGRHAGWIAAAGGLASNEDHEVPIIILFPEVTFDQEKFLAKTDHYVKEYGYCTVVVSEGVKGTDGKFLSDQGLRDAFGHAQLGGVAPVIANIVKNGLGLKYHWGVADYLQRAARHIASGTDVEQAYAMGKAAVEYAIAGHNSVMPTIERISSSPYAWKTGMVELSKVANVEKMMPADFISEDGFGITGKCREYLSPLIEGEDYPPYKNGLPDYVRLKNVAVTKKLAEFKILEHHHHHH	not soluble
MIALDQHLTEHKKDITQQWLEVCTSNGSWLYSAKDQQKLGQKLKDQHELLVTIVAKSLRKEDVEDELNRWSLQCARDRAVHEVTVTQSFGQFNTFRHIMFEWIHKFSEASSQDISIQEFYEWSRILNQNIDEIIEVFTEEYHQVTMIQLNAQKEMINELSAPIMPITDGIGILPLVGEIDTHRARTILESVLEQCSALKLSYLFLDISGVPIVDTMVAYQIFKVIDSTKLLGIETIISGIRPEIAQTVVKLGLDFSNVKTEQSLAKALANKGFKIKEC	not soluble
GSMAEGRGSRERPDVETQKTELGALMGTTLQRGAQWYLIDSRWFKQWKKYVGFDSWDMYNVGEHNLFPGPIDNSGLFSDPESQTLKEHLIDELDYVLVPAEAWNKLLNWYGCVEGQQPIVRKVVEHGLFVKHCKVEVYLLELKLCENSDPTNVLSCHFSKADTIATIEKEMRKLFNIPAERETRLWNKYMSNTYEQLSKLDNTIQDAGLYQGQVLVIEPQNEDGTWPRQSL	soluble
MGSDKIHHHHHHMEKIGELINHFRENKGMSQAELSEGILSKAQLSKFERDLTKISVDKFLALLERLHVTFTEFGNALAIQERLYEQAILEDITKAVINNNKDQAQLVKERAEQHLKKHHGKYNQLTLIMVKAMICDMEKGTLPKADTKVLADYLFSVDGWTHFELLLFGNTMSALSLVTVNQLARELAAQINEAWAIHQNFQLTINLLYNVVILNLSAKDLTTARLFLRVMKHSHVEDSMMAERYLIALADAFCDYCGEPTVEHENNVKRMIEIQKEIGSTNFFVAFNNQAKMFISETKISSNDSAGNV	not soluble
LLESRELVEKIVSILEEKKAKDLNIIDIREISILADYFVICSGTSTTHIKTLADEVEEKMLEAGIELLHKEGYNSARWILLDYGEVVVHIFHEEDRQFYNLERLWADGVMKHRQ	soluble
MAGMNTENENRVEALEVRLAFQDELLDALNATVARQQKEIDLLQQQIRLLYQQFRNAQPDDAPGGSLRDDIPPHY	not soluble
MVVIMLNYDDIKIIDEIYSEGYLFAQYGIYIKKKFKQKIFKIPVDIGLGCPHKKNGGCIFCPEMGRPISVKYCSAKIPLKEQIKKQMENQKKKGFKKFYIYFYPGTNTYAPAEKLKEIWDFSLSYKEVIGLSIGTRPDCLEKEKLDILAEYVENGYDIWIDLGVQSMHQKTLEILNRGHDVSDIIKAIKDCHKRGIKVCGHVILGLPGESWKEMMETAKILSLLEIEAVKIYPLVVVKGTKLEEMYW	not soluble
MGSDKIHHHHHHMNTFPAVLIGGPPHSGKSVLTYLLTQYLRQRGIEHYVLRACPDGEGDWSQESTPDLVRLLRQKGAFDRTFVDRVCRDIEQRHLPLLVDVGGRPTLDQERIIQRCTHAIVLSATPQGMDEWRNRVEQYGLIIVAELHSELHGSDQIEVEKPVLRGVISGLERNAPTGGIVVEALANRLARLMHYDQAELVQQHLQRAPAELVVDLDRLARQMWVEATQRRWIPPDLPQILDSIPAKTPLAIYGRGPNWLYAALAGHTAPAPFSLFDPRLGWAQAQSLRRVPQPVADVIRWQTREEQDYTLLKAHLLEPYLDYDDLSALTVPRLDPQRGVVVSGKLPFWLLTSLIVTYHEHPWLAVIQPQLNPNSVIIFSRCEDYRPGNSIQVVLD	not soluble
MGSDKIHHHHHHMASSTSIDFKGNVTGALADRQLRANFRSALDGLRAKRLNVFSDAEELDRMRVQGEANKRRALAQLPALLEQLEHRCTANGIIVHWAETTDEANRIVLDIMRSHDATTLVKGKSMVSEEMHLNAYLERHGIEALETDLGEFIIQLNHEPPSHIIVPAVHKNRQQVARIFHEKLGEPYVDEVEKLNAIARRTLREKFRTAQVGLSGVNFAIAETGTLLLVENEGNGRMCTTVPPVHIALMGLEKVVERLEDVPPLLRLLTGSATGQLVTTYVNCITSPRKPGEKDGPREVHLVILDNGRSRMLADPQLSRTLQCIRCGTCLNHCPVYVRIGGHAYDSVYPGPIGKILTPQIDGLARKGVLATASSLCNACEEVCPVRIPIPALLRRLRRESYAPPGEGVVKGAGSKRTLFEKAVWKGWEMVYSHPALYSFVLKVLGRFGHRLPKVGPLKAWTSVRTAPRFASTSLHELTRQEGIRHE	not soluble
MGSSHHHHHHSSGLVPRGSHMQQLPKAIIIGVRKGGTRALLEMLNLHPAVVKASQEIHFFDNDENYGKGIEWYRKKMPFSYPQQITIEKSPAYFITEEVPERIYKMNSSIKLLIIVREPTTRAISDYTQVLEGKERKNKTYYKFEKLAIDPNTCEVNTKYKAVRTSIYTKHLERWLKYFPIEQFHVVDGDRLITEPLPELQLVEKFLNLPPRISQYNLYFNATRGFYCLRFNEIFNKCLAGSKGRIHPEVDPSVITKLRKFFHPFNQKFYQITGRTLNWP	soluble
MGSDKIHHHHHHMIKSFWLENFGPISLLKADNLGKINLIIAENSKGKTFILKALYSVLKSHEEAHKGKNIRDFSEELRDKLYWTFQVEEIGDLVTRGKENPNERPLKLSMTLEDSSSVLFSFGRTTKKLIKPELYELSPRINANSIFLPPKEVLSLFDVIKKSEEEKRFGFDATYIDLVKALDIKPTKGRNYPEAAEARKDLEALFGGYVSYNDKKKAWVYEKDRQTFSINSTAEGVKKIGILDTLLGNRFLSPGSILFIDEPEANLHPKAINQFLEILFSLSKSKLGIQIFMSTHSYFVIKKLCLLARKHSESIPVFMPGKEKEQTTWVQENLQNSMPDNEIIGESIRLFREEIGVLSPETAWIG	not soluble
MRKTLNVVVNGERTEIVTYKGTVQGALHDNGITLAPKDKVTPSLESKISKNETITINKAVNVKVKTEDGEKEIVSAEDNVEDMLKSEGISFDDDDKILPDKKESLKDGMNVEVVKVDVKKVTEVHPIEFTTEVKKDESKPQTYTEVLNDGQDGEKKVTRELVYENGKEVSNNVIQELVVKEPVNKEVVKGTKETQTLSRGGESINFKKKLSVKSTAYNHPLGSAEAYTASGMHVLRDPNGYSTIAVDPSVIPLGTKLYVEGYGYAIAADTGGAIKGNRVDLFFNTEAEASNWGVRNLDVYILNLEHHHHHH	soluble
MLKQSMHSFVLLYPNVLLEGWNVEKVSERYEGEKWGTFWFQVVTPTGMFRVKEFFLDIMEPVFPDSCISQAKGDCFQYKGLVYWKGINYKGKESYVTSIWKTQVEISVDHGYVNQDEMERFLFELQPVNMELGKTILHTSFHLLSFQAKRSEMGEIGRCREWNAPDDVSYVNLLIHEKLNWKLESVGFGNDETQYVYWDEVNKLYALWVCRHKNKAYYPISSWTMNYGPKQIINGLEFYSHPNRGTVVYEDLGNEQIAYVFRGNPCTNFEQVKELFACL	not soluble
